Experiments:
[1] = target: taxol-stabilized microtubules (bovine (brain)) (UniProt Q6B856); test: co-sedimentation
[2] = target: kinesin heavy chain deletion mutant H810 (stop codon after amino acid 810), myc-tagged (rat) (UniProt Q2PQA9); test: co-IP
Sequence of UniProt Q2PQA9 (Q2PQA9 2-963, stated change not applied): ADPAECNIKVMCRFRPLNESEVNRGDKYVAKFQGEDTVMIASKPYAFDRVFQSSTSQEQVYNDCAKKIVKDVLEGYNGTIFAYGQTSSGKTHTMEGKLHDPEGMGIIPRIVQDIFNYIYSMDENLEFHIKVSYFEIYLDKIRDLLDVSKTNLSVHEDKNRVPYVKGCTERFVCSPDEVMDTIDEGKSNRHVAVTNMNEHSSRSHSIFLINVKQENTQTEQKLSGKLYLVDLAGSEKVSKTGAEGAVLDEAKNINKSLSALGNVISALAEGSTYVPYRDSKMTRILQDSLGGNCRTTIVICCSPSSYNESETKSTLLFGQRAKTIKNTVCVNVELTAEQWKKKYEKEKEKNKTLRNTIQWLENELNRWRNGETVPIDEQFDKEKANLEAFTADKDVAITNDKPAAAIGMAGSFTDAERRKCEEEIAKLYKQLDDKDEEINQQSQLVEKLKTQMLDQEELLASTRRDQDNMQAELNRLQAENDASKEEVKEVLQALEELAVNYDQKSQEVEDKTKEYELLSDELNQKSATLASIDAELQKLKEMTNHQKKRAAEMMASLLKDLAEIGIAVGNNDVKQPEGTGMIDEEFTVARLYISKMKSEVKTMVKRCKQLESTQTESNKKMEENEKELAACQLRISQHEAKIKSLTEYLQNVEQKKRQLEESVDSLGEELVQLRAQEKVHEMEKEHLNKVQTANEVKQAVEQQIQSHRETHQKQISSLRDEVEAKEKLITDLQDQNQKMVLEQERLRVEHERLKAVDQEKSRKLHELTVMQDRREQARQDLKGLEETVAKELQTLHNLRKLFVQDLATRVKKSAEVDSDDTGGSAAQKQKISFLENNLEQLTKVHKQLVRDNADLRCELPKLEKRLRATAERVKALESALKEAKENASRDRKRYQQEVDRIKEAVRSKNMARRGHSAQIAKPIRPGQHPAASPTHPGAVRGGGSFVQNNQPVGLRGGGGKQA

Sequence of UniProt Q6B856 (Q6B856 whole entry, looked up): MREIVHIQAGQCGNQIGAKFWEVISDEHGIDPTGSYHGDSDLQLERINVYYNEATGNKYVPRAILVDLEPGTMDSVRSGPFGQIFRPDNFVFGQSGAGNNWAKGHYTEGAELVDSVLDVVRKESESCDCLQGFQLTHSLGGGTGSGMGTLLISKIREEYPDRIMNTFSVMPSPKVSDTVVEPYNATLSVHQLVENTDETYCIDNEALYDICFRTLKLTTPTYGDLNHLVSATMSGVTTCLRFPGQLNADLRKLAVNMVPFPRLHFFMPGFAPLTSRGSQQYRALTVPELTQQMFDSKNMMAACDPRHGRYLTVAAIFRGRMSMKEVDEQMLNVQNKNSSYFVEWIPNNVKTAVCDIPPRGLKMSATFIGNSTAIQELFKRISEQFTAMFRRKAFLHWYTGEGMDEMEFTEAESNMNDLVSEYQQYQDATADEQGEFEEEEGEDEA

## HC coexpressed with the LC deletion mutant L176 (from UniProt Q2PQA9 1-963; P37285 1-176) (complex)
[1]
  percent of HC bound to MTs: 50%
  percent of L176 bound to MTs: 20%

## kinesin light chain splice form C (rat), HA-tagged (from UniProt P37285 1-560) (natural protein)
[2]
  percent of LC coprecipitated: 50%

## NH2-terminal 420 amino acids of human conventional kinesin heavy chain (from UniProt P33176 1-420) (domain or fragment)
[1]
  tubulin concentration at half-maximal binding: 0.15 mM

## HC deletion mutant H810 coexpressed with LC (from UniProt Q2PQA9 1-810; P37285 1-560) (complex)
[1]
  percent of the HC construct sedimented with MTs: 90%

## HC deletion mutant H891 coexpressed with LC (from UniProt Q2PQA9 1-891; P37285 1-560) (complex)
[1]
  percent of the HC construct sedimented with MTs: 50 to 95%
